Measured values reported in publication PMC12487865.

Biological target: FGFR1 (UniProt P16092)
Assay: co-IP, Nf2-Flag mutants with FGFR1-HA
Settings: reference: wild-type Nf2

Substance | binding against the reference (sites S315) | binding against the reference (sites S518)
Nf2 (Merlin) (from UniProt P46662) S315A | lost | 
Nf2 (Merlin) (from UniProt P46662) S518A |  | lost
